Measured values from the supplement of paper PMC10567573.

B1: SOAT1 (parent)
chain: GVLILFLTFFAFLHCWLNAFAEML
B2: TIA1 (parent)
chain: TYECRCIGEEKEMWNFGEKYARF

Variants of: B1
Assay: protein stability index of a GFP-peptide fusion (GPS, HEK-293T) (PSI 1-6); higher = more stable
Conditions: c terminus: a fixed tail appended
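Also: lentivirally expressed fusions sorted by FACS into six bins by GFP to DsRed ratio, PSI derived from sequencing read proportions per bin multiplied by bin number.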

| Variant | protein stability index |
| --- | --- |
| A11Y | 2.09 |
| A11D | 2.82 |
| A11T | 3.07 |
| A11H | 2.31 |
| A11S | 2.69 |
| A11L | 1.75 |
| A11V | 1.88 |
| A11Q | 2.55 |
| A11R | 3.9 |
| A11K | 2.37 |
| A11F | 2.48 |
| A11P | 3.29 |
| A11G | 1.15 |
| A11W | 1.64 |
| A11C | 1.84 |
| A11I | 3.38 |
| A11M | 3.5 |
| L7W | 4.58 |
| L7Q | 2.92 |
| L7M | 2.38 |
| L7G | 2.95 |
| L7V | 2.56 |
| L7K | 3.37 |
| L7R | 3.36 |

| Variant | protein stability index |
| --- | --- |
| L7D | 2.11 |
| L7A | 3.84 |
| L7N | 3.81 |
| L7E | 3.09 |
| L7C | 1.91 |
| L7F | 1.85 |
| L7I | 2.4 |
| L7P | 2.68 |
| G1V | 3.18 |
| G1A | 3.39 |
| G1S | 4.28 |
| G1Q | 2.35 |
| G1M | 2.94 |
| G1C | 2.93 |
| G1Y | 2.49 |
| G1E | 3.49 |
| G1T | 3.35 |
| G1N | 3.26 |
| G1I | 3.7 |
| G1H | 3.67 |
| G1F | 2.2 |
| G1R | 4.47 |
| G1K | 2.23 |
| G1W | 1.61 |

| Variant | protein stability index |
| --- | --- |
| G1P | 3.53 |
| H14R | 2.68 |
| H14S | 2.02 |
| H14D | 3.15 |
| H14G | 2.45 |
| H14I | 1.95 |
| H14F | 1.52 |
| H14K | 2.17 |
| H14E | 2.94 |
| H14Y | 2.09 |
| H14A | 2.22 |
| H14V | 1.48 |
| H14W | 2.17 |
| H14L | 1.87 |
| H14P | 2.06 |
| H14Q | 2.47 |
| H14T | 2.06 |
| H14M | 2.07 |
| H14C | 2.17 |
| L3H | 2.34 |
| L3E | 2.74 |
| L3Y | 2.94 |
| L3T | 3.86 |
| L3A | 2.52 |

| Variant | protein stability index |
| --- | --- |
| L3P | 3.1 |
| L3W | 3.13 |
| L3F | 2.69 |
| L3M | 3.1 |
| L3D | 2.13 |
| L3R | 2.98 |
| L3S | 3.06 |
| L3C | 3.65 |
| L3V | 3.82 |
| L3K | 1.94 |
| L3G | 2.85 |
| W16A | 2 |
| W16Y | 2.31 |
| W16M | 3.65 |
| W16H | 3.94 |
| W16S | 3.04 |
| W16P | 2.19 |
| W16E | 3.24 |
| W16K | 2.19 |
| W16T | 3.45 |
| W16Q | 2.55 |
| W16D | 2.4 |
| W16C | 2.68 |
| W16I | 2.96 |

| Variant | protein stability index |
| --- | --- |
| W16F | 3.85 |
| W16L | 3.2 |
| W16V | 3.12 |
| W16G | 3.64 |
| W16N | 2.59 |
| I4T | 3.27 |
| I4E | 2.23 |
| I4N | 3.78 |
| I4W | 2.43 |
| I4R | 3.74 |
| I4K | 1.43 |
| I4A | 2.03 |
| I4H | 1.85 |
| I4S | 2.66 |
| I4C | 2.42 |
| I4F | 1.75 |
| I4D | 1.73 |
| I4V | 2.92 |
| I4Q | 4.98 |
| I4L | 2.76 |
| I4Y | 3.33 |
| I4G | 4.32 |
| I4M | 3.03 |
| I4P | 2.26 |

| Variant | protein stability index |
| --- | --- |
| F12L | 2.09 |
| F12M | 2.87 |
| F12R | 2.64 |
| F12G | 2.81 |
| F12I | 2.6 |
| F12S | 3.35 |
| F12T | 2.42 |
| F12W | 2.92 |
| F12V | 1.84 |
| F12D | 2.27 |
| F12E | 3.48 |
| F12N | 3 |
| F12H | 2.43 |
| F12C | 3.26 |
| F12Y | 2.75 |
| F12A | 2.65 |
| F12Q | 2.71 |
| F12K | 3.54 |
| F9A | 1.36 |
| F9M | 3.56 |
| F9D | 3.34 |
| F9C | 3.31 |
| F9I | 1.34 |
| F9E | 3.8 |

| Variant | protein stability index |
| --- | --- |
| F9T | 2.68 |
| F9S | 1.94 |
| F9G | 4.01 |
| F9P | 3.94 |
| F9Q | 2.33 |
| F9N | 2.46 |
| F9W | 3.04 |
| F9H | 4.54 |
| F9V | 3.43 |
| F9Y | 2.83 |
| F9K | 3.13 |
| L13G | 2.86 |
| L13R | 2.96 |
| L13H | 2.45 |
| L13I | 2.17 |
| L13E | 3.16 |
| L13W | 3.93 |
| L13C | 2.83 |
| L13D | 3.39 |
| L13N | 3.07 |
| L13P | 2.6 |
| L13F | 2.74 |
| L13A | 4.05 |
| L13T | 3.62 |

| Variant | protein stability index |
| --- | --- |
| L13Y | 2.48 |
| L13S | 3.65 |
| L13Q | 4.15 |
| L13V | 2.57 |
| L13K | 3.57 |
| L17F | 2.8 |
| L17C | 2.63 |
| L17S | 1.44 |
| L17Q | 2.24 |
| L17K | 3.15 |
| L17T | 2.88 |
| L17V | 3.02 |
| L17E | 3.02 |
| L17Y | 3.42 |
| L17H | 1.87 |
| L17N | 2.84 |
| L17R | 3.44 |
| L17A | 2.74 |
| L17I | 2.26 |
| L17P | 2.22 |
| L17M | 2.95 |
| L17D | 2.9 |
| L17W | 2.44 |
| L17G | 2.06 |

| Variant | protein stability index |
| --- | --- |
| C15D | 1.44 |
| C15Y | 2.79 |
| C15S | 1.83 |
| C15G | 2.01 |
| C15A | 2.75 |
| C15N | 3.02 |
| C15F | 2.27 |
| C15I | 2.55 |
| C15T | 2.47 |
| C15M | 3.37 |
| C15H | 1.99 |
| C15R | 1.95 |
| C15K | 3.47 |
| C15E | 2.28 |
| C15W | 3.12 |
| C15Q | 3.3 |
| C15P | 2.81 |
| C15V | 2 |
| C15L | 2.97 |
| N18I | 2.85 |
| N18V | 2.45 |
| N18S | 2.51 |
| N18P | 3.85 |
| N18D | 1.71 |

| Variant | protein stability index |
| --- | --- |
| N18R | 2.55 |
| N18T | 3 |
| N18Q | 2.81 |
| N18L | 3.64 |
| N18Y | 2.61 |
| N18E | 3.51 |
| N18H | 2.92 |
| N18C | 1.59 |
| N18W | 2.94 |
| N18G | 2.52 |
| N18M | 2.78 |
| N18K | 2.48 |
| N18F | 3.51 |
| F10M | 1.67 |
| F10T | 3.52 |
| F10I | 2.54 |
| F10V | 2.75 |
| F10Y | 3.58 |
| F10Q | 4.33 |
| F10C | 2.63 |
| F10L | 2.24 |
| F10N | 3.82 |
| F10E | 2.27 |
| F10R | 3.84 |

| Variant | protein stability index |
| --- | --- |
| F10H | 2.17 |
| F10K | 2.35 |
| F10S | 2.2 |
| F10A | 3.62 |
| L5N | 3.7 |
| L5V | 1.91 |
| L5Q | 3.75 |
| L5Y | 3.59 |
| L5K | 2.87 |
| L5R | 2.57 |
| L5C | 2.84 |
| L5E | 3.38 |
| L5T | 2.34 |
| L5H | 3.32 |
| L5W | 2.17 |
| L5I | 2.23 |
| L5A | 2.42 |
| L5D | 4.32 |
| L5G | 2.13 |
| L5M | 1.72 |
| A19C | 2.73 |
| T8D | 2.71 |
| T8A | 3.88 |
| T8M | 2.6 |

| Variant | protein stability index |
| --- | --- |
| T8I | 2.42 |
| T8C | 1.01 |
| T8P | 3.34 |
| T8F | 3.81 |
| T8V | 2.33 |
| T8S | 3.41 |
| T8G | 2.61 |
| T8E | 2.8 |
| T8L | 2.04 |
| T8N | 2.38 |
| T8W | 1.47 |
| T8H | 3.09 |
| T8Y | 3.57 |
| T8Q | 1.69 |
| F6D | 1.78 |
| F6Y | 3.06 |
| F6M | 1.35 |
| F6P | 2.63 |
| F6T | 2.02 |
| F6S | 2.73 |
| F6H | 2.63 |
| F6V | 3.25 |
| F6Q | 3.85 |
| F6R | 3.83 |

| Variant | protein stability index |
| --- | --- |
| F6G | 1.72 |
| F6I | 2.63 |
| F6A | 3.95 |
| V2S | 1.98 |
| V2T | 2.72 |
| V2E | 2.17 |
| V2M | 2.26 |
| V2F | 2.32 |
| V2I | 2.62 |
| V2W | 2.95 |
| V2Q | 2.56 |
| V2C | 2.05 |
| V2D | 2.14 |
| V2L | 1.03 |
| V2K | 2.31 |
| V2H | 2.35 |
| V2A | 2.01 |
| V2P | 1.74 |
| V2N | 1.42 |
| V2Y | 2.31 |
| V2R | 3.5 |

Variants of: B2
Assay: as above
Conditions: c terminus: native

| Variant | protein stability index |
| --- | --- |
| F23C | 1.61 |
| F23A | 3.29 |
| F23K | 3.29 |
| F23W | 2.64 |
| F23G | 2.11 |
| F23Y | 2.18 |
| F23I | 1.59 |
| F23M | 2.54 |
| F23N | 1.87 |
| F23P | 2.69 |
| F23E | 3.42 |
| F23T | 1.87 |
| F23D | 3.5 |
| F23S | 2.2 |
| F23R | 1.52 |
| F23Q | 1.48 |
| F23L | 1.29 |
| F23H | 1.83 |
| R22W | 1.6 |
| R22P | 1.92 |
| R22S | 2.29 |
| R22Q | 2.92 |
| R22V | 2.84 |
| R22Y | 1.81 |
| R22T | 2.49 |
